Data from PMC3617563.

How the values were obtained:
[1] = molecular target: K48-linked IQF (internally quenched fluorescence) diubiquitin substrate DiUb48-6 (UniProt P0CG48); assay: other fluorescence titration
[2] = molecular target: K48-linked IQF (internally quenched fluorescence) diubiquitin substrate DiUb48-6 (UniProt P0CG48); assay: stopped-flow fluorescence

B1: C276A USP2 catalytic core (inactive active-site mutant) (domain or fragment)
chain: NSKSAQGLAGLRNLGNTAFMNSILQCLSNTRELRDYCLQRLYMRDLHHGSNAHTALVEEFAKLIQTIWTSSPNDVVSPSEFKTQIQRYAPRFVGYNQQDAQEFLRFLLDGLHNEVNRVTLRPKSNPENLDHLPDDEKGRQMWRKYLEREDSRIGDLFVGQLKSSLTCTDCGYCSTVFDPFWDLSLPIAKRGYPEVTLMDCMRLFTKEDVLDGDEKPTCCRCRGRKRCIKKFSIQRFPKILVLHLKRFSESRIRTSKLTTFVNFPLRDLDLREFASENTNHAVYNLYAVSNHSGTTMGGHYTAYCRSPGTGEWHTFNDSSVTPMSSSQVRTSDAYLLFYELASPPSRM
Kd [1]: 270 nM | K1 (association constant of the first step) [2]: 2.33 µM⁻¹ | K2 (equilibrium constant of the second step) [2]: 0.59 | Kd from a fit to a single exponential function [2]: 2420 nM | k1 (first step, association) [2]: 140000 M⁻¹ s⁻¹ | k−1 (first step, dissociation) [2]: 0.06 s⁻¹ | maximum of kobs,2 [2]: 0.57 s⁻¹ | y-intercept of the linear regression of kobs,1 [2]: 0.63 s⁻¹
